The record followed here is PMC7803741, “Structural basis of GABARAP-mediated GABAA receptor trafficking and functions on GABAergic synaptic transmission” (Nature Communications, 2021).

Some results are limits rather than exact numbers.

Common to all, as to details: both partners purified
The target of experiment [1] is T1, GABAAR-associated protein (GABARAP) (mouse, UniProt Q9DCD6 1-117).
T1 construct: GABARAP, mouse, UniProt Q9DCD6; the thioredoxin-His6 tag was removed 'when needed'; also called GABARAP WT; source: E. coli BL21 (DE3), purified (nickel-NTA, size exclusion)
Briefly: ITC; giant ankyrin peptides and GABARAP, compared against γ2-GIM.

Experiment [2] addresses T2, clathrin adaptor protein AP2 (AP2 μ1 subunit as printed) (rat, UniProt P84092 1-435).
T2 construct: AP2 μ subunit (printed 'AP2 μ1 subunit'), rat, UniProt P84092; the full-length gene was amplified and shorter fragments were generated; Only the μ subunit is named as cloned; the text calls the protein 'AP2'; source: E. coli BL21 (DE3), purified (nickel-NTA, size exclusion)
T2 sequence (looked up): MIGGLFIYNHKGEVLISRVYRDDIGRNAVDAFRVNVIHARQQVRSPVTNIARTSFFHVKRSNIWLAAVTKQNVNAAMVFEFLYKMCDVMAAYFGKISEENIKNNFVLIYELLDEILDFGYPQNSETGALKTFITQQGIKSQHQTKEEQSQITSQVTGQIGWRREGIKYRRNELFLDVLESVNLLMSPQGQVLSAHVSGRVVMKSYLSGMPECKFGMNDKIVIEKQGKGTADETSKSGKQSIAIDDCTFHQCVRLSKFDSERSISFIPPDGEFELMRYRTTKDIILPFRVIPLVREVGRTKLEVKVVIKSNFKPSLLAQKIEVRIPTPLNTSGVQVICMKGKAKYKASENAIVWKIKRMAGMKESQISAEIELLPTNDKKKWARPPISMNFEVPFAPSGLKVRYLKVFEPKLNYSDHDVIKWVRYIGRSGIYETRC
The experiment in a line: ITC; VP-ITC, 25 °C; 50 mM Tris pH 7.8, 100 mM NaCl, 1 mM EDTA, 1 mM DTT; γ2 subunit protein or peptide (100–200 μM) injected into GABARAP, GABARAPL1 or AP2 (10–20 μM) in the cell; one-site binding model. (In general: Isothermal titration calorimetry measures the heat released or taken up as one component is titrated into another.)

In experiment [3] the target is T1, GABAAR-associated protein (GABARAP). The description is as above.
The next experiment has as its target T3, GABARAP E17A (mouse, UniProt Q9DCD6 1-117, E17A).
T3 construct: GABARAP, mouse, UniProt Q9DCD6, E17A; source: E. coli BL21 (DE3), purified (nickel-NTA, size exclusion)
Described as above.

Experiment [4] has as its target T4, GABARAPL1 (mouse, UniProt Q8R3R8 1-117).
T4 construct: GABARAPL1, mouse, UniProt Q8R3R8; source: E. coli BL21 (DE3), purified (nickel-NTA, size exclusion)
The description is as above.

The target of a further experiment is T5, GABARAP K66E (mouse, UniProt Q9DCD6 1-117, K66E).
T5 construct: GABARAP, mouse, UniProt Q9DCD6, K66E; source: E. coli BL21 (DE3), purified (nickel-NTA, size exclusion)
Described as above.

Experiment [5] deals with T6, clathrin adaptor protein AP2 (AP2 μ1 subunit) (rat, UniProt P84092 158-435).
T6 construct: AP2 μ1 subunit as printed, rat, UniProt P84092; the limits rest on the primer list; also called AP2 WT; source: E. coli BL21 (DE3), purified (nickel-NTA, size exclusion)
T6 sequence (looked up): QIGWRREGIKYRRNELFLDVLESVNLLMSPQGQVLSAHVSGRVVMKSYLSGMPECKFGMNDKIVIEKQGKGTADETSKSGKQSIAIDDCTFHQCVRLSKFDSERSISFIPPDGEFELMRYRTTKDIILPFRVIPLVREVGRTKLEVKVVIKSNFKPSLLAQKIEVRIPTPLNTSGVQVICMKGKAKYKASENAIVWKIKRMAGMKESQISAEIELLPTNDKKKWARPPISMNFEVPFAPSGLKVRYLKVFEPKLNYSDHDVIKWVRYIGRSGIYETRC
The experiment in a line: ITC; VP-ITC at 25 °C; 50 mM Tris pH 7.8, 100 mM NaCl, 1 mM EDTA, 1 mM DTT; γ2 subunit protein or peptide (100-200 μM) injected into GABARAP, GABARAPL1 or AP2 (10-20 μM) in the cell; one-site binding model.

For experiment [6], the target named is T7, GABARAPL1 (mouse, UniProt Q8R3R8 1-117).
T7 construct: GABARAPL1, mouse, UniProt Q8R3R8; also called GABARAPL1 WT; source: E. coli BL21 (DE3), purified (nickel-NTA, size exclusion)
The description is as above.

Experiment [7] concerns the target T8, GABAA receptor-associated protein (GABARAP) (mouse, UniProt Q9DCD6 1-117).
T8 construct: GABARAP, mouse, UniProt Q9DCD6; also called GABARAP WT; source: E. coli BL21 (DE3), purified (nickel-NTA, size exclusion)
Described as above.

The target of experiment [8] is T8, GABAA receptor-associated protein …. The description is as above. This is another data set of the same source.

T1 sequence (Q9DCD6 whole entry): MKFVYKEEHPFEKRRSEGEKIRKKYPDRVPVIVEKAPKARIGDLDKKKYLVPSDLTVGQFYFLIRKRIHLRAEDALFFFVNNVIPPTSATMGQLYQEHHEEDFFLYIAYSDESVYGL
T8 sequence (Q9DCD6 whole entry): as above
T5 sequence (Q9DCD6 whole entry K66E): as the sequence (Q9DCD6 whole entry) above, with K66E counted along it
T3 sequence (Q9DCD6 whole entry E17A): as the sequence (Q9DCD6 whole entry) above, with E17A counted along it

As to PEDDWTRFSSEEIREARQAAASHAPS [AnkG-ER peptide], in experiment [1], the “fold stronger affinity for GABARAP than γ2-GIM” value is roughly 1000 fold.

B1: γ2-GIM Y403E variant (phosphomimic mutation) (peptide, UniProt P22723-2 398-415, looked up)
chain: ERDEEEGYECLDGKDCAS
notes: source: E. coli BL21 (DE3), purified (nickel-NTA, size exclusion)
For the molecule B1, the “fold decrease of affinity against γ2-GIM WT” value in [2] is roughly 10 fold. In addition, the “fold increase of affinity against γ2-GIM WT” value in experiment [3] was roughly 5 fold.

B2: GABAAR γ2 subunit GIM (GABARAP interacting motif, 398–415) (peptide, UniProt P22723-2 398-415, looked up)
chain: ERDEEYGYECLDGKDCAS
notes: also called γ2-GIM; source: E. coli BL21 (DE3), purified (nickel-NTA, size exclusion)
Usually Kd stands for a measure of binding affinity in units of concentration. As for B2, in the experiment with GABARAP E17A, the binding result was “binds”. Further, in the experiment with GABARAPL1 [4], the Kd was roughly 6.6 µM. Besides, the “fold weakening against GABARAP WT” value in the experiment with GABARAP K66E is roughly 4 fold.

B3: GABAA receptor γ2-GIM L408Q (peptide, UniProt P22723-2 398-415, looked up)
chain: ERDEEYGYECQDGKDCAS
notes: as for B1
In the case of B3, the Kd in experiment [5] was greater than 50 µM.

B4: γ2-GIM E402T variant (peptide, UniProt P22723-2 398-415, looked up)
chain: ERDETYGYECLDGKDCAS
notes: as for B1
Take B4: in experiment [3], the Kd turned out to be 8.4 µM.

B5: GABAA receptor γ2 subunit GIM (GABARAP interacting motif, 398-415) (peptide)
chain: ERDEEYGYECLDGKDCAS
notes: as for B2
As a reminder, the stoichiometry N is the number of molecules, sites or subunits per partner or assembly. In the case of B5, in the experiment with GABARAPL1 [6], the Kd came to 5.7 µM and the “stoichiometry N” value stood at 1.23.

B6: GABAA receptor γ2 subunit 404-442 (domain or fragment, mouse)
chain: GYECLDGKDCASFFCCFEDCRTGAWRHGRIHIRIAKMDS
notes: GABAA receptor γ2 subunit, mouse, UniProt P22723-2, residues 404-442; also called GABAA receptor γ2 404-442; source: E. coli BL21 (DE3), purified (nickel-NTA, size exclusion)
On to B6, for which, in experiment [7], binding was characterised by a dissociation constant (Kd) of 30 µM and the “stoichiometry N” value amounted to 0.55.

B7: GABAA receptor γ2 subunit 375-424 (domain or fragment, mouse, UniProt P22723-2 375-424, looked up)
chain: PAPTIDIRPRSATIQMNNATHLQERDEEYGYECLDGKDCASFFCCFEDCR
notes: as for B1
With B7, the “stoichiometry N” value in experiment [7] stood at 0.92.

B8: GABAA receptor γ2-GIM E402T (peptide, UniProt P22723-2 398-415, looked up)
chain: ERDETYGYECLDGKDCAS
notes: as for B1
Molecule B8 registered a dissociation constant Kd in experiment [5] of 0.56 ± 0.02 µM.

B9: GABAA receptor γ2-GIM Y403E (peptide, UniProt P22723-2 398-415, looked up)
chain: ERDEEEGYECLDGKDCAS
notes: as for B1
Consider B9, for which the values for the Kd in experiment [5] and in [8] were 2.46 ± 0.22 µM and 1 ± 0.1 µM, respectively.

B10: GABAA receptor γ2 subunit 375-442 (full length TM3-TM4 ICD) (domain or fragment, mouse, UniProt P22723-2 375-442, looked up)
chain: PAPTIDIRPRSATIQMNNATHLQERDEEYGYECLDGKDCASFFCCFEDCRTGAWRHGRIHIRIAKMDS
notes: GABAA receptor γ2 subunit, mouse, UniProt P22723-2, residues 375-442 (TM3-TM4 intracellular domain); also called GABAA receptor γ2 375-442; source: E. coli BL21 (DE3), purified (nickel-NTA, size exclusion)
Regarding B10, in [7], the “stoichiometry N” value is 0.53.

B11: full length TM3–TM4 ICD (residues 375–442) of the GABAA receptor γ2 subunit (domain or fragment, mouse, UniProt P22723-2 375-442, looked up)
chain: PAPTIDIRPRSATIQMNNATHLQERDEEYGYECLDGKDCASFFCCFEDCRTGAWRHGRIHIRIAKMDS
notes: GABAA receptor γ2 subunit, mouse, UniProt P22723-2, residues 375-442; also called TM3–TM4 intracellular loop; source: E. coli BL21 (DE3), purified (nickel-NTA, size exclusion)
In the case of B11, the equilibrium dissociation constant (Kd) in [3] is roughly 8 µM.

B12: GABAA receptor γ2 subunit 398-424 (domain or fragment, mouse)
chain: ERDEEYGYECLDGKDCASFFCCFEDCR
notes: as for B1
With B12, in experiment [7], the Kd turned out to be 5 µM and the “stoichiometry N” value came to 0.92.

B13: GABAA receptor γ2-GIM E406R (peptide, UniProt P22723-2 398-415, looked up)
chain: ERDEEYGYRCLDGKDCAS
notes: as for B1
As for B13, binding in experiment [5] was put at a Kd of 0.69 ± 0.06 µM.
